Test results taken from patent US20230380451A1, “MEANS AND METHODS TO DETOXIFY MYCOTOXINS” (priority 2020, published 2023).

Columns and labels:
[1] = Storage stability in storage buffer at different temperatures, residual DON transformation activity; format: biochemical; conditions: for Relative DON transformation activity: storage buffer
Method: (§1) To determine the transformation of DON to epi-THS by Akr I-III, described herein, the following assay was performed. An assay buffer was prepared containing 40 ppm DON, 1 mM NADPH in Teorell Stenhagen (TS) buffer, pH 6.0 (Östling and Virtama, Acta Physiologica Scandinavica, 1946, 11:4, 289-293). Tubes containing the assay buffer were transferred in a heating block at 30° C. The reaction was started by addition of Akr I-III to a final concentration of 200 nM in a final reaction volume of 200 μL. Samples were taken before reaction start, and 2, 5, 10, 15 and 20 min after reaction start. DON transformation reactions in these samples were stopped by mixing with absolute methanol at a 1:2 ratio, followed by a 1:100 dilution with 40% methanol. The concentrations of DON and epi-THS in the samples were determined with liquid chromatography-mass spectrometry (LC-MS) on a Sciex 5500 triple quadrupole mass spectrometer coupled to Agilent 1290 series UHPLC system, using the following MS parameters: Acquisition duration: 4 min; Scan Type: MRM (MRM); Polarity: Negative; Ion Source: Turbo Spray.
The storage stability of Akr I-III was tested by incubation of 5 μM enzyme solutions in storage buffer (50 mM Tris pH 9.0, 0.5M NaCl, 50% Glycerol), for 60 min in a thermocycler (Mastercycler, Eppendorf) set to gradient mode from 30° C. to 50° C. Throughout the incubation, samples were removed and placed on ice until DON transformation assays were performed as described in Example 3 to determine enzyme activities. The starting activity at time 0 min was set to 100% and the relative residual activities were determined throughout the incubation. Akr I retained more than 33% activity during 60 min in pH 6 at temperatures from 29.9° C. to 46.0° C. Akr III retained 15% to 90% activity during 20 min in pH 6 at temperatures from 29.9° C. to 40.7° C.

[2] = Storage stability at different pH values, residual DON transformation activity; format: biochemical; conditions: for Relative DON-transformation activity: storage at 30° C.
Method: as §1
The storage stability of Akr I-III at different pH values was tested by incubating 1 μM enzyme in TS buffer solutions with a pH of 3.0-10.0 for 4 h at 30° C. in standard 1.5 ml Eppendorf tubes. Every hour, a DON transformation assay was conducted as described in Example 3. The starting activity at time 0 min was set to 100% and the relative residual activities were determined throughout the incubation. For the DON transformation assays, 80 μl of the storage solution were added to an assay reaction with a final volume of 400 μl, which corresponds to a 1:5 dilution of the storage solution. Akr I retained more than 93% activity during 4 hours at 30° C. from pH 4.0-10.0. Akr II retained 30% to 93% activity during 4 hours at 30° C. from pH […] retained 27% to 85% activity during 4 hours at 30° C. from pH 4.0-9.0. Akr I-III retained more than 40% of their activity for 4 hours at 30° C. from pH 4.0 to pH 8.0.

B1: Akr I: artificial amino acid sequence, variant of a wild type aldo-keto reductase (protein)
chain: MRTTEISQGLKVSNLCIGAGPLGGMPTAFGYDVSEERGIATVQAVFDSPINFMDTSSEYGDSEVRIGKVIREGRMPKGFVIATKADAEGDGTARRGDFSAKQVRASFELSLERLGLTHIDVYFLHDPEKFPFEHVMARGGAMEELLRLKDEGLVGLVGVAGGDVVEMARYVDTGNLDILLNYGRYTLLDRSADSLIDKASDAGMAFLNAGPYASGLLAAPRGGSAWYQYAPPNADALQAVDQLHELCESFDVSLRSVALQFSMRDPRITSTVVGLSRPERVRALLDDAAAEIPAELWDQLPAPLNLPWNSLA
modifications: ArkI
- retained activity ([1]; during 60 min in pH 6 at temperatures from 29.9° C. to 46.0° C.): more than 33%
- Relative DON transformation activity ([1]; 29.9° C., 0 min (starting activity set to 100%)): 100.00%
- Relative DON transformation activity ([1]; 29.9° C., 5 min): 121.5%
- Relative DON transformation activity ([1]; 29.9° C., 10 min): 114.8%
- Relative DON transformation activity ([1]; 29.9° C., 20 min): 118.9%
- Relative DON transformation activity ([1]; 29.9° C., 35 min): 106.2%
- Relative DON transformation activity ([1]; 29.9° C., 50 min): 70.1%
- Relative DON transformation activity ([1]; 29.9° C., 60 min): 53.7%
- Relative DON transformation activity ([1]; 35.3° C., 0 min (starting activity set to 100%)): 100.00%
- Relative DON transformation activity ([1]; 35.3° C., 5 min): 132.8%
- Relative DON transformation activity ([1]; 35.3° C., 10 min): 97.7%
- Relative DON transformation activity ([1]; 35.3° C., 20 min): 101.5%
- Relative DON transformation activity ([1]; 35.3° C., 35 min): 109.7%
- Relative DON transformation activity ([1]; 35.3° C., 50 min): 84.6%
- Relative DON transformation activity ([1]; 35.3° C., 60 min): 47.0%
- Relative DON transformation activity ([1]; 37.9° C., 0 min (starting activity set to 100%)): 100.00%
- Relative DON transformation activity ([1]; 37.9° C., 5 min): 130.1%
- Relative DON transformation activity ([1]; 37.9° C., 10 min): 101.4%
- Relative DON transformation activity ([1]; 37.9° C., 20 min): 110.1%
- Relative DON transformation activity ([1]; 37.9° C., 35 min): 109.0%
- Relative DON transformation activity ([1]; 37.9° C., 50 min): 77.0%
- Relative DON transformation activity ([1]; 37.9° C., 60 min): 48.6%
- Relative DON transformation activity ([1]; 40.7° C., 0 min (starting activity set to 100%)): 100.00%
- Relative DON transformation activity ([1]; 40.7° C., 5 min): 130.2%
- Relative DON transformation activity ([1]; 40.7° C., 10 min): 100.7%
- Relative DON transformation activity ([1]; 40.7° C., 20 min): 60.5%
- Relative DON transformation activity ([1]; 40.7° C., 35 min): 95.8%
- Relative DON transformation activity ([1]; 40.7° C., 50 min): 76.1%
- Relative DON transformation activity ([1]; 40.7° C., 60 min): 50.0%
- Relative DON transformation activity ([1]; 43.4° C., 0 min (starting activity set to 100%)): 100.00%
- Relative DON transformation activity ([1]; 43.4° C., 5 min): 133.6%
- Relative DON transformation activity ([1]; 43.4° C., 10 min): 111.3%
- Relative DON transformation activity ([1]; 43.4° C., 20 min): 79.1%
- Relative DON transformation activity ([1]; 43.4° C., 35 min): 75.2%
- Relative DON transformation activity ([1]; 43.4° C., 50 min): 60.2%
- Relative DON transformation activity ([1]; 43.4° C., 60 min): 52.9%
- Relative DON transformation activity ([1]; 46.0° C., 0 min (starting activity set to 100%)): 100.00%
- Relative DON transformation activity ([1]; 46.0° C., 5 min): 125.9%
- Relative DON transformation activity ([1]; 46.0° C., 10 min): 123.1%
- Relative DON transformation activity ([1]; 46.0° C., 20 min): 83.4%
- Relative DON transformation activity ([1]; 46.0° C., 35 min): 61.8%
- Relative DON transformation activity ([1]; 46.0° C., 50 min): 3.0%
- Relative DON transformation activity ([1]; 46.0° C., 60 min): 33.1%
- Relative DON transformation activity ([1]; 50.8° C., 0 min (starting activity set to 100%)): 100.00%
- Relative DON transformation activity ([1]; 50.8° C., 5 min): 118.6%
- Relative DON transformation activity ([1]; 50.8° C., 10 min): 44.2%
- Relative DON transformation activity ([1]; 50.8° C., 20 min): 16.3%
- Relative DON transformation activity ([1]; 50.8° C., 35 min): 4.9%
- Relative DON transformation activity ([1]; 50.8° C., 50 min): 7.5%
- Relative DON transformation activity ([1]; 50.8° C., 60 min): 0%
- retained activity ([2]; during 4 hours at 30° C. from pH 4.0-10.0): more than 93%
- Relative DON-transformation activity ([2]; pH 3.0, 0 h (starting activity set to 100%)): 100.0%
- Relative DON-transformation activity ([2]; pH 3.0, 1 h): 0.0%
- Relative DON-transformation activity ([2]; pH 3.0, 2 h): 0.0%
- Relative DON-transformation activity ([2]; pH 3.0, 3 h): 0.0%
- Relative DON-transformation activity ([2]; pH 3.0, 4 h): 0.0%
- Relative DON-transformation activity ([2]; pH 4.0, 0 h (starting activity set to 100%)): 100.0%
- Relative DON-transformation activity ([2]; pH 4.0, 1 h): 100.6%
- Relative DON-transformation activity ([2]; pH 4.0, 2 h): 102.8%
- Relative DON-transformation activity ([2]; pH 4.0, 3 h): 101.5%
- Relative DON-transformation activity ([2]; pH 4.0, 4 h): 93.8%
- Relative DON-transformation activity ([2]; pH 5.0, 0 h (starting activity set to 100%)): 100.0%
- Relative DON-transformation activity ([2]; pH 5.0, 1 h): 101.0%
- Relative DON-transformation activity ([2]; pH 5.0, 2 h): 101.6%
- Relative DON-transformation activity ([2]; pH 5.0, 3 h): 100.8%
- Relative DON-transformation activity ([2]; pH 5.0, 4 h): 97.9%
- Relative DON-transformation activity ([2]; pH 6.0, 0 h (starting activity set to 100%)): 100.0%
- Relative DON-transformation activity ([2]; pH 6.0, 1 h): 100.6%
- Relative DON-transformation activity ([2]; pH 6.0, 2 h): 101.9%
- Relative DON-transformation activity ([2]; pH 6.0, 3 h): 101.1%
- Relative DON-transformation activity ([2]; pH 6.0, 4 h): 100.7%
- Relative DON-transformation activity ([2]; pH 7.0.0, 0 h (starting activity set to 100%)): 100.0%
- Relative DON-transformation activity ([2]; pH 7.0.0, 1 h): 99.6%
- Relative DON-transformation activity ([2]; pH 7.0.0, 2 h): 101.4%
- Relative DON-transformation activity ([2]; pH 7.0.0, 3 h): 99.7%
- Relative DON-transformation activity ([2]; pH 7.0.0, 4 h): 96.1%
- Relative DON-transformation activity ([2]; pH 8.0, 0 h (starting activity set to 100%)): 100.0%
- Relative DON-transformation activity ([2]; pH 8.0, 1 h): 101.5%
- Relative DON-transformation activity ([2]; pH 8.0, 2 h): 102.4%
- Relative DON-transformation activity ([2]; pH 8.0, 3 h): 101.1%
- Relative DON-transformation activity ([2]; pH 8.0, 4 h): 101.2%
- Relative DON-transformation activity ([2]; pH 9.0.0, 0 h (starting activity set to 100%)): 100.0%
- Relative DON-transformation activity ([2]; pH 9.0.0, 1 h): 100.9%
- Relative DON-transformation activity ([2]; pH 9.0.0, 2 h): 101.0%
- Relative DON-transformation activity ([2]; pH 9.0.0, 3 h): 100.8%
- Relative DON-transformation activity ([2]; pH 9.0.0, 4 h): 96.6%
- Relative DON-transformation activity ([2]; pH 10.0, 0 h (starting activity set to 100%)): 100.0%
- Relative DON-transformation activity ([2]; pH 10.0, 1 h): 100.5%
- Relative DON-transformation activity ([2]; pH 10.0, 2 h): 101.4%
- Relative DON-transformation activity ([2]; pH 10.0, 3 h): 99.8%
- Relative DON-transformation activity ([2]; pH 10.0, 4 h): 96.0%
